# Laboratory results from the supplement of paper PMC9170038.
# System: MS2 coat protein
# Assay: apparent KD of MS2 coat protein; designed switch direction (-1 OFF switch, 1 ON switch): -1; higher = weaker reporter binding
# Procedure, shortened: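 Three titration conditions were used: no input, 200 uM small-molecule ligand, and an oligonucleotide input. In each, SNAP-549-labelled MS2 coat protein was raised from 0.7 or 1.5 nM, doubling, to 3 µM over designed RNA switches transcribed on Illumina chips by stalled E. coli RNA polymerase. Curve fits of normalised cluster fluorescence gave values whose per-design median over clusters is the apparent KD.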
# [1] = Eterna round: R95, input ligand: FMN 200 uM
# [2] = Eterna round: R95, input ligand: microRNA oligo, concentration not stated
# [3] = Eterna round: R95, input ligand: none
# [4] = input ligand: microRNA oligo, concentration not stated
Sequence,apparent KD of MS2 coat protein [1],apparent KD of MS2 coat protein [2],apparent KD of MS2 coat protein [3],apparent KD of MS2 coat protein (input ligand: FMN 200 uM),apparent KD of MS2 coat protein (input ligand: none),apparent KD of MS2 coat protein [4]
AAAAAACAAGGAUAUACAAAAAAAAAAUGUGAUAAAAAACCACAUGAGGAUCACCCAUGUAGAAGGUGUAAAAA [JR_Exclusion2_Sub003] (puzzle: Exclusion 2),55.6 nM,62.8 nM,65 nM,–,–,–
AAAAAACAAGGAUAUACAAAAAAAAAAUGUGUUAAAUUUUCACAUGAGGAUCACCCAUGUAGAAGGUGUAAAAA [JR_Exclusion2_Sub005] (puzzle: Exclusion 2),46 nM,49.1 nM,51.7 nM,–,–,–
AAAAAACAAGGAUAUACGAAGGAGGAUUAUCUUAAUUUUUGACAUGAGGAUCACCCAUGUAGAAGGUGUUAAAA [JR_Exclusion2_Sub009] (puzzle: Exclusion 2),83.5 nM,38.2 nM,48.4 nM,–,–,–
AAAAAACAAGGAUAUACGAAGGAUGAUUAUCUUAAUUUUUGACAUGAGGAUCACCCAUGUAGAAGGUGUUAAAA [JR_Exclusion2_Sub008] (puzzle: Exclusion 2),125 nM,51.5 nM,52.9 nM,–,–,–
AAAAAACAUGAGGAUCACCCAUGUCAGGAUAUCCGAAAAGAAAAGAAAAAGAAAAAAGGGAGAAGGGACAAAAA [April's ex-date #2] (puzzle: Exclusion 1),50.5 nM,42 nM,33 nM,–,–,–
AAAAAGCGAGGAUAUGCAUAAGGACCCGGGAGGGAAAUCAAACAUGAGGAUCACCCAUGUAGAAGGCGCAAAAA [Exclss2-III] (puzzle: Exclusion 2),–,18.2 nM,–,–,–,–
"AAAACAAAAGGAUAUACAUGAGGAUCACCCAUGUGGCGAUAAAUCGCCGCUAAACCAUGUAGAAGGUUUGCGAA [EX3 A.2] (Eterna round: R97, puzzle: Exclusion 3)",–,–,–,102 nM,42.6 nM,–
AAAACACAUGAGGAUCACCCAUGUGAGGAUAUGUUAAUUUCGGCCAAAGCCGAAAUUAACAGAAGGCACAUAAA [JR_Exclusion1_Sub019] (puzzle: Exclusion 1),–,46 nM,–,–,–,–
AAAACGUCAGGAUAUACGAAAUAAAAUAAAAUAAAAUAAAAGUAGAAGGGACAUGAGGAUCACCCAUGUAAUAA [Exclusion 4 #1] (puzzle: Exclusion 4),43.7 nM,26.6 nM,36.2 nM,–,–,–
AAAACUGAAGGAUAUGCCAGGGUGAGAGCUGGUGACGUUUAACAUGAGGAUCACCCAUGUAGAAGGUCAAAACA [Usate] (puzzle: Exclusion 2),–,12.6 nM,–,–,–,–
AAAAGAAGUGUUAGGAUAUGUGUAAGUAGAAAGACACAGAAGGAACAUGAGGAUCACCCAUGUGGCCAAAGAAC [Vesotila] (puzzle: Brourd's mod of Exclusion 4),38.7 nM,14.1 nM,13.6 nM,–,–,–
AAAAGAGUAGGAUAUCUGACGCGAAACAUGAGGAUCACCCAUGUAGGGCGGUCCUGCUUAAGAGAAGGGCUCAAAU [Sodirira] (puzzle: Exclusion 5),–,88.9 nM,–,–,–,–
"AAAAGGUCAGGAUAUGCUUGGCGGAUUCUGGUAUCCAAAUGACAUGAGGAUCACCCAUGUAGAAGGGACAUCAG [Maanlesoge] (Eterna round: R97, puzzle: Exclusion 2)",–,–,–,21.8 nM,20.6 nM,–
AAAAGGUGAGGAUAUUCGGCGCCGGGAAGGUUGGUGCGGAUGAAGAAGGCACAUGAGGAUCACCCAUGUAAUAA [Excls4-I] (puzzle: Exclusion 4),–,43.5 nM,–,–,–,–
"AAAAUAAAGAUGCCUUAAAACAUGAGGAUCACCCAUGUGAGUAAGGAUAUCGGAACCAAUCGCGACGAGAAGGUACUCGCGUGU [Ceestemaat] (Eterna round: R96, puzzle: Exclusion NG 3)",–,–,–,9.87 nM,14.4 nM,9.44 nM
AAAAUACAUGAGGAUCACCCAUGUAAGGAUAUACGCCUAGUACCGAUGGUACUACAAAGUAGAAGGUACAUGGC [Arma] (puzzle: Exclusion 1),17.1 nM,12.3 nM,14.1 nM,–,–,–
"AAAAUACAUGAGGAUCACCCAUGUGAGGAUAUGAGAGUCAUUUAUAUAUAUUAGAUUCUCAGAAGGCACAUAAA [JR_Ex1_Sub068] (Eterna round: R97, puzzle: Exclusion 1)",–,–,–,211 nM,53.7 nM,–
"AAAAUGUCAGGAUAUUGUUAGUUUAGUUGUUUGUAUUAGUUCGAGAAGGGACAUGAGGAUCACCCAUGUUAAAA [Ex4 #67] (Eterna round: R97, puzzle: Exclusion 4)",–,–,–,45.7 nM,29.9 nM,–

Sequence,apparent KD of MS2 coat protein [1],apparent KD of MS2 coat protein [2],apparent KD of MS2 coat protein [3],apparent KD of MS2 coat protein (input ligand: FMN 200 uM),apparent KD of MS2 coat protein (input ligand: none),apparent KD of MS2 coat protein [4]
AAAAUGUGAGGAUAUCAGGUGUGCUAGCGAACUGGUACAUCUGAGAAGGCACAUGAGGAUCACCCAUGUUCCUU [Mat - Exclusion 4 - Mod of JL - D51] (puzzle: Exclusion 4),–,16.2 nM,–,–,–,–
"AAACAGCAAGGAUAUACGGGCUGUGCUUUUCAUUUCAUACAACAUGAGGAUCACCCAUGUAGAAGGUGCAACAA [Ex2 #4] (Eterna round: R97, puzzle: Exclusion 2)",–,–,–,125 nM,34.3 nM,–
"AAACAGCAAGGAUAUACGGGCUGUGCUUUUCAUUUCUUACAACAUGAGGAUCACCCAUGUAGAAGGUGCAACAA [Ex2 #5] (Eterna round: R97, puzzle: Exclusion 2)",–,–,–,80.4 nM,24.5 nM,–
"AAACCCUGAGGAUAUAGAUAACAACAAAGCCUCACGUGCCAACAUGAGGAUCACCCAUGUAGAAGGCAGGCCAA [Mod R3 Insanara 4 - Jieux - Exclusion 2] (Eterna round: R97, puzzle: Exclusion 2)",–,–,–,14.7 nM,17.2 nM,–
"AAACCUGCCCAUGACCGCAAGCCUUUUGCUUGUCUUACCACAUGAGGAUCACCCAUGUGACAUGGGCUCCUUAUAAA [Solabixe] (puzzle: Sensor v3, turn-off variant 2)",14.1 nM,10.5 nM,13.5 nM,–,–,–
"AAACUCCUGACAACCAGGAACAUGAGGAUCACCCAUGUGGCGUGACUCAUACGGGCUUUUUGUUCGUUUUAUUCACG [Aleatxe] (puzzle: Sensor v3, turn-off variant 1)",41 nM,26.6 nM,51 nM,–,–,–
"AAAGAAAAGAAAGGAUAUAGCGCAGAACCGCAGCUAGAAGGUUCGGUGGGUAUCCUGUAACAUGAGGAUCACCCAUGUAAAGAG [Tire] (Eterna round: R96, puzzle: Exclusion NG 1)",–,–,–,69.9 nM,55.7 nM,48.7 nM
"AAAGAUGGAGGAUAUACAUGAGGAUCACCCAUGUAGAAAAAAAAUUGGGAAAAAGAAAGUAGAAGGCCAAAAAA [Ex 3 May 43] (Eterna round: R96, puzzle: Exclusion 3)",–,–,–,67.6 nM,36.5 nM,25.6 nM
"AAAGGAGUAGGAUAUGAGCCCAAAUACAUGAGGAUCACCCAUGUCGGGUUCAUGGAGGGCUUAGAAGGAUUUAAAA [Onreridi] (Eterna round: R97, puzzle: Exclusion 5)",–,–,–,25.8 nM,23.1 nM,–
"AAAGGGUGAGGAUAUCCAUCUGGAUCAGACUAGAUCCUGAUGGAGAAGGCACAUGAGGAUCACCCAUGUGAGUU [Eli 4x 4.33] (Eterna round: R97, puzzle: Exclusion 4)",–,–,–,112 nM,99.2 nM,–
"AAAGUCCUAGGAGGAUAUCACCUGCCUAGCACAUGAGAAGGCCUAGGAGACAUGAGGAUCACCCAUGUGUCCUUAGUCGAAAAU [Ensobedi] (Eterna round: R96, puzzle: Exclusion NG 1)",–,–,–,19.5 nM,13.2 nM,9.59 nM
"AAAGUUGCCUACGGUGUGCACAUGAGGAUCACCCAUGUACCUCCAUGGCAGUGCCAAUAAUUAUGCUCGUCACUACA [Eternabot (L1) Solution 18] (Eterna round: R97, puzzle: Sensor, turn-off variant 1)",–,–,–,14.9 nM,14.2 nM,–
"AAAUAAACAAGCAACUCGAACAUGAGGAUCACCCAUGUAAAGGGUGAAUCGUCCACCCAAAAAAAAAAUAAAAAAAA [Mat - Sensor v2 - Eli mod - 132] (Eterna round: R96, puzzle: Sensor v2, turn-off variant)",–,–,–,57.7 nM,55.9 nM,116 nM
"AAAUAACAAGCAGGAUCCUACAUGAGGAUCACCCAUGUGCUCGUCUUAUAAAGUACUAUCACGAAAGUGAUAGUACU [Mat - Sensor v3 - turn-off var 1 - Eli Mod - D72] (puzzle: Sensor v3, turn-off variant 1)",153 nM,93 nM,156 nM,–,–,–
"AAAUAAUAGAUAAAAUAAAACAUGAGGAUCACCCAUGUGGGAUGUUGAGGGUGAUACAAGCUUUUUGCUCGUCUUAU (puzzle: Sensor v3, turn-off variant 1)",233 nM,45.6 nM,271 nM,–,–,–
"AAAUAGAAUGAGGAUAUCGUAUUGUAUUUAGUGCGAGAAGGCAUUACAUGAGGAUCACCCAUGUUUUGUUGGGA [JR_Ex6_Sub003] (Eterna round: R97, puzzle: Exclusion 6)",–,–,–,89.1 nM,32.3 nM,–
"AAAUAGCGAGGAUAUACUCCAAUAGCAAAUAUUCCCAUGGCACAUGAGGAUCACCCAUGUAGAAGGCGCAGUAA (Eterna round: R97, puzzle: Exclusion 2)",–,–,–,54.2 nM,44.4 nM,–
AAAUCUGCUGAGGAUAUGAUGACUGAGAGGUCAUCAGAAGGCGGUACAUGAGGAUCACCCAUGUCUAUGGGCAA [Ex-6 Malc#30] (puzzle: Exclusion 6),–,243 nM,–,–,–,–
